Test results from patent US12698507B2, “Methods and compositions for conferring and/or enhancing herbicide tolerance using protoporphyrinogen IX oxidase of various cyanobacteria or variant thereof” (FarmHannong Co., Ltd., priority 2019, dated 2026).
Positions count from the first letter of the chain named. In names and notes the source's numbering stands.

B1: CyPPO19 V305M + L327T + F360I: variant of CyPPO19 PPO protein (SEQ ID NO: 1) (protein)
chain: MSEVDVAIVGGGLSGLSLAWRLQQSAPQYSVVLLEASDRLGGNITTQTAEGFVWELGPNSFAPTPALLQLIAEVGLQSELIRGDRHLPRYIYWRGQLYPLQPTRPLALATSNLLSPWGKVRAALGALGFVPPYLGSGDESVNSFFRRHLGQEVAERLVAPFVSGVYAGDPQQLSAAAAFRRIAQLEKLGGGLIAGALHLRRQQAPKPKPPTSVQMRPGELGSFKEGLAALPRAIAQQLKAPIHLQTPVQEITPDPKGGYLLRSGEQTWRARSVVLATPAYQTAELVAPFQPAIARVLATIPYPTMACVVLAYPAGLGRSVRPGFGVTIPRSQGIRTLGTIWSSCLFPQRTPAGWQVFTSIIGGATDPDLASLSEEAIVQQVQQDLNRLLDLPAAKARLLGMKVWRRAIPQYMVGYPEQWQQVTHALSQTPGLFLCSNYAEGVALGDRVEHGNRTAAAVAAYLSGGQP
modifications: Synthetic_PPO of Thermosynechococcus elongatus PKUAC-SCTE542 (comprising GenBank No. CP032152.1)
B2: CyPPO19 V305L + L327T + F360V: variant of CyPPO19 PPO protein (SEQ ID NO: 1) (protein)
chain: B1 chain with M305L, I360V
modifications: Synthetic_PPO of Thermosynechococcus elongatus PKUAC-SCTE542 (comprising GenBank No. CP032152.1)
B3: CyPPO19 V305M + L327T + F360T: variant of CyPPO19 PPO protein (SEQ ID NO: 1) (protein)
chain: B1 chain with I360T
modifications: Synthetic_PPO of Thermosynechococcus elongatus PKUAC-SCTE542 (comprising GenBank No. CP032152.1)

System: PPO-deficient BT3 E. coli (ΔPPO)
Assay: PPO-inhibiting herbicide tolerance test of PPO variants in E. coli (growth on herbicide-containing LB agar)
Type: cell-based
Conditions: CyPPO19 variants in BT3 (ΔPPO) E. coli; LB agar with 0 to 2,000 μM herbicide, 37° C., dark, 16-20 hours
Outline: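 PPO-deficient BT3 E. coli expressing each variant from pET303 were diluted to OD600=0.5, then 10-fold serially, and spotted on LB-ampicillin agar with 0 to 2,000 μM herbicide. After 16-20 h at 37° C. in the dark, growth relative to wild type was scored from '−' (equivalent) to '+' per 10-fold resistance, max '+++++'.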

Molecule	tolerance level relative to wild type, Carfentrazone	tolerance level relative to wild type, Flumioxazin	tolerance level relative to wild type, Fomesafen	tolerance level relative to wild type, Oxyfluorfen	tolerance level relative to wild type, Saflufenacil	tolerance level relative to wild type, Sulfentrazone	tolerance level relative to wild type, Tiafenacil
B1	+ (‘+’ per each 10-fold resistance)	++++ (‘+’ per each 10-fold resistance)	+ (‘+’ per each 10-fold resistance)	++ (‘+’ per each 10-fold resistance)	++ (‘+’ per each 10-fold resistance)	++ (‘+’ per each 10-fold resistance)	++++ (‘+’ per each 10-fold resistance)
B2	+ (‘+’ per each 10-fold resistance)	+++++ (until ‘+++++’ as maximal resistance)	+ (‘+’ per each 10-fold resistance)	+++ (‘+’ per each 10-fold resistance)	+++ (‘+’ per each 10-fold resistance)	++ (‘+’ per each 10-fold resistance)	+++++ (until ‘+++++’ as maximal resistance)
B3	+ (‘+’ per each 10-fold resistance)	+++ (‘+’ per each 10-fold resistance)	++ (‘+’ per each 10-fold resistance)	++ (‘+’ per each 10-fold resistance)	+++ (‘+’ per each 10-fold resistance)	+++ (‘+’ per each 10-fold resistance)	+++ (‘+’ per each 10-fold resistance)
